T1: CD27 expressed on the cell surface (HT1080_CD27 cells) (human, UniProt P26842 20-260)
T1 sequence (looked up): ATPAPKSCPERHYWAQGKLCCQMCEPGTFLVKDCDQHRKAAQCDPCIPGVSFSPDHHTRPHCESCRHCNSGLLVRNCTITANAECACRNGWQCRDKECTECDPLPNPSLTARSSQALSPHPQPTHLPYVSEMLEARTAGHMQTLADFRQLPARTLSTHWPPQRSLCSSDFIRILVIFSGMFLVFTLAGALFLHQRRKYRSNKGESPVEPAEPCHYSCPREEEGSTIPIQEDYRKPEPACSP

T2: CD27 protein (His-tagged, Sino Biological Inc. 10039-H08B1) (human, UniProt P26842 20-192)
T2 construct: bought; coated onto ELISA plates; also called human CD27; recombinant protein; not shown: His tag
T2 sequence (looked up): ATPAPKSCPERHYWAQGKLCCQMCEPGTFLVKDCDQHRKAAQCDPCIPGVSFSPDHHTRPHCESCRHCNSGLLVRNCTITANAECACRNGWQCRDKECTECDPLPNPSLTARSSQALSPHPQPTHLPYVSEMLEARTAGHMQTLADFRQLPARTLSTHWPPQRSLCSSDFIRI


What was measured:
[1] = biological target: T1, CD27 expressed on the cell surface …; experiment: cell-based or functional assay
[2] = biological target: T2, CD27 protein (His-tagged, Sino …); experiment: ELISA on coated His-tagged CD27
[3] = biological target: T1, CD27 expressed on the cell surface …; experiment: cellular binding assay, HT1080_CD27 cells
Note: test concentration or dose not given here.

Binder	IL-8, cross-linked by F(ab')2 fragment [abs. corr.] [1]	IL-8 [abs. corr.] [1]	ELISA [abs. corr.] [2]	Cellular binding assay [RFU] [3]
P018.S.05.A.C06 (antibody, V domains shown, V regions on human Ig constant parts; also called AB27_85) VH: QSLEESGGRLVTPGTPLTLTCTASGFSLSNYYITWVRQAPGEGLEWIGTISTAGNTYFASWAKGRFTISRTSTTVDLKMTSPTTEDTATYFCARDGAGDSNYYRNLWGQGTLVTVSS VL: DIVLTQTPASVEAAVGGTVTIKCQASQSIDRFLAWYQQKPGQPPKLLIVDASTLESGVPSRFSGSGSGTEFTLTISDLESDNAATYYCQQGYSISDIDNVFGGGTEVVVK	1.11 abs. corr.	0.539 abs. corr.	3.35 abs. corr.	351 RFU
P018.S.07.A.F03 (antibody, V domains shown, V regions on human Ig constant parts; also called AB27_127) VH: QSLEESGGRLVTPGTPLTLTCTASGFSLSNYYITWVRQAPGEGLEWIGTISTAGNTYFASWANGRFTISRTSTTVDLKMTSPTTEDTATYFCARDGAGDSNYYRNLWGQGTLVTVSS VL: DIVLTQTPASVEAAVGGTVTIKCQASQSIDRFLAWYQQKPGQPPKLLIVDASTLESGVPSRFSGSGSGTEFTLTISDLESDNAATYYCQQGYSISDIDNVFGGGTEVVVK	1.41 abs. corr.	0.444 abs. corr.	3.53 abs. corr.	380 RFU
P018.S.06.A.F01 (antibody, V domains shown, V regions on human Ig constant parts; also called AB27_107) VH: QSLEESGGRLVTPGTPLTLTCTASGFSLSSYYMTWVRQAPGEGLEWIGTISTAGNTYFASWAKGRFTISRTSTTVDLKMTSPTTEDTATYFCARDGAGDSNYYRNLWGQGTLVTVSS VL: AYDMTQTPASVEAAVGGTVTIKCQASESIDRFLAWYQQKPGQPPKLLIVDASTLESGVPSRFSGSGSGTEFTLTISDLESDNAATYYCQQGYSISDIDNVFGGGTEVVVK	1.08 abs. corr.	0.405 abs. corr.	3.4 abs. corr.	310 RFU
P018.S.06.A.E01 (antibody, V domains shown, V regions on human Ig constant parts; also called AB27_104) VH: QSLEESGGRLVTPGTPLTLTCTASGFSLSSYYMTWVRQAPGEGLEWIGTISTAGNTYFASWVKGRFTISRTSTTVDLKMTSPTTEDTATYFCTRDGAGDSNYYRNLWGQGTLVTVSS VL: AIDMTQTPASVEAAVGGTVTIKCQASESIDRFLAWYQQKPGQPPKLLIVDASTLESGVPSRFSGSGSGTEFTLTISDLESDNAATYYCQQGYAISDIDNVFGGGTEVVVK	1.55 abs. corr.	0.525 abs. corr.	3.35 abs. corr.	354 RFU
P018.S.08.A.E02 (antibody, V domains shown, V regions on human Ig constant parts; also called AB27_139) VH: QSLEESGGRLVTPGGSLTLTCTVSGIDLSSYDMNWVRQAPGEGLEWIGAISTGGDTHYTNWAKGRFTISKTSTTVDLKMTSLTAADTATYFCARGYYTLALWGQGTLVTVSS VL: DPVLTQTPASVEAAVGGTVTIKCQASQSINSWLSWYQQKPGQPPKRLIYDTSTLESGVPSRFSGGESGTEFTLTISDLESDDAATYYCQSYYYITSSYAITFGGGTEVVVK	1.55 abs. corr.	0.315 abs. corr.	3.33 abs. corr.	387 RFU
P018.S.07.A.F04 (antibody, V domains shown, V regions on human Ig constant parts; also called AB27_128) VH: QSLEESGGRLVTPGTPLTLTCTVSGFSLSSHAMSWVRQAPGKGLEYIGIIDTDASASYASWAKGRFTISRTSTTVDLKITSPTTEDTATYFCARDGGYTDYSYYAMDLWGPGTLVTVSS VL: DIVMTQTPASVEAAVGGTVTIKCQASETIYVNLAWYQQKPGQPPKLLIYRASTLASGVSSRFKGSGSGTEFTLTISDVKSVDAATYYCHQAYRRSDVGNIFGGGTEVVVK	1.58 abs. corr.	0.424 abs. corr.	3.35 abs. corr.	296 RFU
P018.S.07.A.H06 (antibody, V domains shown, V regions on human Ig constant parts; also called AB27_134) VH: QSLEESGGDLVQPGASLTLTCKASGIDLSSYWMCWVRQTPGKGLEWIGCIATYSSVTYYANWAKGRFTISKPSSTTVTLQMTSLTAADTATYFCARDPYSFNGSLFTLWGPGTLVTVSS VL: ALVMTQTASPVSAAVGGTVTIDCQASQNIGTYLAWYQQKPGQPPKLLIYTASSLASGVPSRFKGSGSGTQFTLTISDLESDDAATYYCAGYKNYNNDDNGFGGGTEVVVK	1.23 abs. corr.	0.422 abs. corr.	3.35 abs. corr.	327 RFU
P018.S.07.A.D03 (antibody, V domains shown, V regions on human Ig constant parts; also called AB27_122) VH: QEQLKESGGGLVTPGGTLTLTCTVSGFSLSGHDMGWVRQAPGKGLEWIGIIGSNSKTYYTNWAKGRFTISKTSTTVGLRITSPTTEDTATYFCTVVGPGVGGFYFDLWGQGTLVTVSS VL: DVVMTQTPASVSDPVGGTVTIRCQASQSIGSDLAWYQQKPGQPPKLLIYAASTLASGVPSRFSGSGSGTEYTLTISDLESADAATYYCQCTYVGSTYLGAFGGGTEVVVK	1.68 abs. corr.	0.569 abs. corr.	3.34 abs. corr.	409 RFU
P018.S.01.A.H06 (antibody, V domains shown, V regions on human Ig constant parts; also called AB27_26) VH: QEQLKESGGRLVKPDETLTITCTASGFSLSRYDMSWVRQAPGKGLEWIGSIWSDGDTDYANWAKGRFTISKTSTTVDLKITSPTTEDTATYFCARGYTAWSLWGPGTLVTVSS VL: ALVMTQTPSPVSAAVGGTVTISCQSSESVVGNNALSWFQQKPGQPPKLLNYQASTLASGVSSRFSGSGSGTQFTLTISGVQSDDAATYYCQGTYYSSGWYFAFGGGTEVVVK	2.18 abs. corr.	0.27 abs. corr.	3.44 abs. corr.	422 RFU
P018.S.05.A.G04 (antibody, V domains shown, V regions on human Ig constant parts; also called AB27_93) VH: QEQLKESGGRLVKPDESLTLTCTASGFSLSRYDMSWVRQAPGKGLEWIGSIWSDGDTDYANWAKGRFTISKTSTMVDLKITSPTTEDTATYFCGRGYTAWNLWGPGTLVTVSS VL: ALVMTQTPSPVSATVGGTLTISCQSSESVVGNNALSWFQQKPGQPPKLLIYQASTLASGVSSRFSGSGSGTQFTLTISGVQSDDAATYYCQGTYYSSGWYFAFGGGTEVVVK	1.19 abs. corr.	0.393 abs. corr.	3.35 abs. corr.	375 RFU
P018.S.08.A.H02 (antibody, V domains shown, V regions on human Ig constant parts; also called AB27_142) VH: QSLEESGGRLVTPGTPLTLTCTASGFSLSYYYMTWVRQAPGKGLEWIGITGGGGDTYYGTWAKGRFTISKTSTTVDLKMTSPTTEDTATYFCARGTDGAAHTGFALWGQGTLVTVSS VL: DIVMTQTPASVEAAVGGTVTIKCQASEDISSRLSWYQQKPGQPPKLLIYLASTLASGVPSRFKGSGSGTQFTLTISDLESADAATYYCQSSSYGTSTIYGTFGGGTEVVVK	1.91 abs. corr.	0.328 abs. corr.	3.58 abs. corr.	352 RFU
P018.S.07.A.D04 (antibody, V domains shown, V regions on human Ig constant parts; also called AB27_123) VH: QSLEESGGRLVTPGGSLTLTCTVSGIDLSSYAMGWVRQAPGKGLEWIGIISSSGSTYYASWANGRFTISKTSTTVDLKVTSPTTEDTATYFCARDGDSGRGYYFHFWGQGTLVTVSS VL: AFELTQTPASVSAAVGGTVTIKCQASEDIYSLLAWYQQKPGQPPKLLIYDASDLASGVPSRFSGSGSGTEYTLTISDLESADAAIYYCQQGYTTVTIVDNVFGGGTEVVVK	1.81 abs. corr.	0.449 abs. corr.	3.33 abs. corr.	393 RFU
P018.S.01.A.F05 (antibody, V domains shown, V regions on human Ig constant parts; also called AB27_20) VH: QEQLEESGGDLVKPEGSLTLTCTASGFSFSSSYWICWVRQAPGKGLEWIGCIITGRGNTYYANWAKGRFTISKTSSTTVTLQMTSLTAADTAIYSCARGPGGADPVNLWGPGTLVTVSS VL: DVVMTQTPASVSEPVGGTVTIKCQASQSIYSNLAWYQQKPGQPPKLLIYRASTLTSGVPSRFKGSGSGTQFTLTISDLESADAATYYCQCTYDGSSYVPNAFGGGTEVVVK	1.18 abs. corr.	0.559 abs. corr.	3.35 abs. corr.	369 RFU
P018.S.09.A.D04 (antibody, V domains shown, V regions on human Ig constant parts; also called AB27_151) VH: QSVEESGGRLVTPGTPLTLTCTVSGFSLSSNAISWVRQAPGKGLEWIAIITHSDNTFYASWAKGRFTISKASTTVDLKVTSPTTEDTATYFCARDGYVSSSGTYMGGYFDLWGQGTLVTVSS VL: DPVLTQTPSPVSAAVGGTVTINCQASQIIYNDKNLAWYQQKPGQPPKLLIYYASTLASGVSSRFKGSASGTQFTFTISGVQSDDAATYYCQGEFSCSSADCIAFGGGTEVVVK	1.66 abs. corr.	0.688 abs. corr.	3.35 abs. corr.	376 RFU
